According to EP4806514A2 (Lepu Biopharma Co., Ltd., dated 2025):
Residue numbers refer to the chain shown, from its start.

T1: human CDH17, full length, expressed on cells (HEK293-hCDH17); AsPC-1, HCT-8, AGS, LoVo, KATO III, HT-29 tumor … (human, UniProt Q12864 23-832)
T1 construct: also called human CDH17 expressed on tumor cells
T1 sequence: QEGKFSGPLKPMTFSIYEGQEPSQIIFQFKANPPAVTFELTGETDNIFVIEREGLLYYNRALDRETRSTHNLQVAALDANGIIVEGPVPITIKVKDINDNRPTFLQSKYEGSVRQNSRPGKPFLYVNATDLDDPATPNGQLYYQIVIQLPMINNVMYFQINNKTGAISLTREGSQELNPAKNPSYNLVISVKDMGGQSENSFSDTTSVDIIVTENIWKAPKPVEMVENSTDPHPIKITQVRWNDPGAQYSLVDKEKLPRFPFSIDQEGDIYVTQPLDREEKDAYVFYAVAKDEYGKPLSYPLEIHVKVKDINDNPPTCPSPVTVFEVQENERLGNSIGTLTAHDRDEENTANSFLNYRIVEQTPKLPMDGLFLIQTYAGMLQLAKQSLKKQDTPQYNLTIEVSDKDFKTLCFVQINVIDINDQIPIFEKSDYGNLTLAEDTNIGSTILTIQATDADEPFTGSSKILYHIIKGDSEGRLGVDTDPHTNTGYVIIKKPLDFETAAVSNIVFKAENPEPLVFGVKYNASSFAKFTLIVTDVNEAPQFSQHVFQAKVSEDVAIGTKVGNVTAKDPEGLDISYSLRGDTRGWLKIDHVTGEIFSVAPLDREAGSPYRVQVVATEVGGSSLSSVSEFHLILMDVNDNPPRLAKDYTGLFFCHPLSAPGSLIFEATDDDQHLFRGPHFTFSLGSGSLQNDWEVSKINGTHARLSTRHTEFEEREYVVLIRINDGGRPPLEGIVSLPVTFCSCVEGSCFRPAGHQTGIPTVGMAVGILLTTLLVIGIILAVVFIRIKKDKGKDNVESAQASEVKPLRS

T2: hCDH17-his (full length extracellular domain of human CDH17, Q23-M787, his tag at the C-terminal) (human, UniProt Q12864 23-787)
T2 construct: Limits of the construct (UniProt Q12864, Q23-M787, C-terminal his tag); also called human CDH17-his protein; human CDH17 protein
T2 sequence: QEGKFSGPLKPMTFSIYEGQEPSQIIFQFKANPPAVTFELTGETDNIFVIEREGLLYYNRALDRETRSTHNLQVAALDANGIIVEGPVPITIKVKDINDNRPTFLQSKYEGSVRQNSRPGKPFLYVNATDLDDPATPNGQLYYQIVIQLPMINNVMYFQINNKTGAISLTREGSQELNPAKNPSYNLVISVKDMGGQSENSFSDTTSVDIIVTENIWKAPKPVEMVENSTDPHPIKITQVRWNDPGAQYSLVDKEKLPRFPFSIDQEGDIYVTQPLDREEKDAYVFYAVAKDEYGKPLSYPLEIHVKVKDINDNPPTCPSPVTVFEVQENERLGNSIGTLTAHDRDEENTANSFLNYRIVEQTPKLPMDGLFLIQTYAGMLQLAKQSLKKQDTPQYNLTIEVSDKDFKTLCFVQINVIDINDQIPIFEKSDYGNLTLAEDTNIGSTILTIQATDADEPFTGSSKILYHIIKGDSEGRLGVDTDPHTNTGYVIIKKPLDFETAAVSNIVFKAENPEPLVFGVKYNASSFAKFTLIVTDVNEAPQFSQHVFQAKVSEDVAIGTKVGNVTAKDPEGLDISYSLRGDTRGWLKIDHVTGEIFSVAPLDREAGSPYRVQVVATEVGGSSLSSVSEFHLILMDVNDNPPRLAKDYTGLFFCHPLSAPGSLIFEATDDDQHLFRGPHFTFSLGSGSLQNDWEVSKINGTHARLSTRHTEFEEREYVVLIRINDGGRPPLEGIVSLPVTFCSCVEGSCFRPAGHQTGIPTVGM

B1: 61C7F12-z2 (antibody, V domains shown)
VH: EVQLVESGGGLVKPGGSLRLSCAASGFTFSSYAMSWVRQAPGKGLEWVSTINIGGSYTYYPDSVKGRFTISRDNAKNSLYLQMNSLRAEDTAVYYCARQEGRYWYFDVWGQGTTVTVSS
VL: DIQLTQSPSFLSASVGDRVTITCTASSSVSSSYLHWYQQKPGKAPKLWIYSTSNLASGVPSRFSGSGSGTEYTLTISSLQPEDFATYYCHQFHRSPYTFGGGTKVEIK
notes: Humanized, human IgG1 constant region; also called 61C7F12 HU-VH1-0 / HU-VL1-1
B2: 61C7F12-z9 (antibody, V domains shown)
VH: B1 VH
VL: EIVLTQSPGTLSLSPGERATLSCTASSSVSSSYLHWYQQKPGQAPRLLIYSTSNLASGIPDRFSGSGSGTDFTLTISRLEPEDFAVYYCHQFHRSPYTFGGGTKVEIK
notes: Humanized, human IgG1 constant region; also called 61C7F12 HU-VH1-0 / HU-VL2-0
B3: 61C7F12-z4 (antibody, V domains shown)
VH: B1 VH
VL: B1 VL with D1Q, Q3V, A44S, E71S, T73S
notes: Humanized, human IgG1 constant region; also called 61C7F12 HU-VH1-0 / HU-VL1-3
B4: 61C7F12-z7 (antibody, V domains shown)
VH: B1 VH with S49A
VL: B1 VL with Q3V, A44S, T73S
notes: Humanized, human IgG1 constant region; also called 61C7F12 HU-VH1-1 / HU-VL1-2
B5: 61C7F12-z8 (antibody, V domains shown)
VH: B1 VH with S49A
VL: B1 VL with D1Q, Q3V, A44S, E71S, T73S
notes: Humanized, human IgG1 constant region; also called 61C7F12 HU-VH1-1 / HU-VL1-3
B6: 61C7F12-z10 (antibody, V domains shown)
VH: B1 VH with S49A
VL: B2 VL
notes: Humanized, human IgG1 constant region; also called 61C7F12 HU-VH1-1 / HU-VL2-0
B7: 61C7F12-z6 (antibody, V domains shown)
VH: B1 VH with S49A
VL: B1 VL
notes: Humanized, human IgG1 constant region; also called 61C7F12 HU-VH1-1 / HU-VL1-1
B8: 61C7F12-z1 (antibody, V domains shown)
VH: B1 VH
VL: B1 VL with W48L, Y72F
notes: Humanized, human IgG1 constant region; also called 61C7F12 HU-VH1-0 / HU-VL1-0
B9: 61C7F12-z5 (antibody, V domains shown)
VH: B1 VH with S49A
VL: B1 VL with W48L, Y72F
notes: Humanized, human IgG1 constant region; also called 61C7F12 HU-VH1-1 / HU-VL1-0
B10: 61C7F12-z3 (antibody, V domains shown)
VH: B1 VH
VL: B1 VL with Q3V, A44S, T73S
notes: Humanized, human IgG1 constant region; also called 61C7F12 HU-VH1-0 / HU-VL1-2
B11: 69E3H11-z12 (antibody, V domains shown)
VH: QVQLVQSGAEVKKPGASVKVSCKASGYTFTTYWMHWVKQAPGQRLEWIGEIDPSDSYANYNQKFKGKATLTVDKSASTAYMELSSLRSEDTAVYYCALYYGYGDWGQGTTVTVSS
VL: EIVLTQSPGTLSLSPGERATLSCSVSSSISSIHLHWYQQKPGQAPRLLIYRTSNLASGIPDRFSGSGSGTDFTLTISRLEPEDFAVYYCQQGSNLPLTFGQGTRLEIK
notes: Humanized, human IgG1 constant region; also called 69E3H11 HU-VH1-3 / HU-VL2-0
B12: 69E3H11-z10 (antibody, V domains shown)
VH: B11 VH
VL: EIVLTQSPDFQSVTPKEKVTITCSVSSSISSIHLHWYQQKPDQSPKLLIKRTSNLASGVPSRFSGSGSGTDFTLTINSLEAEDAATYYCQQGSNLPLTFGQGTRLEIK
notes: Humanized, human IgG1 constant region; also called 69E3H11 HU-VH1-3 / HU-VL1-0
B13: 29D2D7-z19 (antibody, V domains shown)
VH: QVQLVQSGAEVKKPGASVKVSCKASGYTFTDYDMHWVKQAPGQGLEWIGGFDPESAGTVYNLRFKDKATLTADKSTSTAYMELRSLRSEDTAVYYCARKGYYSVSSPFTYWGQGTLVTVSS
VL: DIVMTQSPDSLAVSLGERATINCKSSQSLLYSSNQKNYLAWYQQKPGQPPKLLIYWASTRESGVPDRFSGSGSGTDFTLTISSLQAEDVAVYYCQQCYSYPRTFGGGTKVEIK
notes: Humanized, human IgG1 constant region
B14: 29H8D3-z12p1 (antibody, V domains shown)
VH: QVQLVQSGAEVKKPGASVKVSCKASGYTFTDHTIHWMRQRPGQGLEWIGYIYPREGYTKYNEKFKDRATLTADTSTSTAYMELRSLRSDDTAVYYCARFYYGYWYFDVWGQGTTVTVSS
VL: DIVMTQSPLSLPVTPGEPASISCRSSKSLLRSNGNTYLYWFLQKPGQSPQVLIYRMSNLASGVPDRFSGSGSGTDFTLKISRVEAEDVGVYYCMQHLEYPFTFGQGTKLEIK
notes: PTM-removed variant of 29H8D3-z12
B15: 29H8D3-z12p10 (antibody, V domains shown)
VH: B14 VH with E55D
VL: B14 VL with M94K
notes: PTM-removed variant of 29H8D3-z12; VH is that of 29H8D3-z12
B16: 29H8D3-z12p13 (antibody, V domains shown)
VH: B14 VH with E55D
VL: B14 VL with M94S
notes: as for B15
B17: 29H8D3-z12p9 (antibody, V domains shown)
VH: B14 VH with E55D
VL: B14 VL with M94H
notes: as for B14
B18: 29H8D3-z12p14 (antibody, V domains shown)
VH: B14 VH with E55D
VL: B14 VL with M94T
notes: as for B15
B19: 29H8D3-z18 (antibody, V domains shown)
VH: B14 VH with M37V, R40A, E55D, L70M, A72T
VL: B14 VL with D75A
notes: as for B13
B20: 29H8D3-z19 (antibody, V domains shown)
VH: B14 VH with R40A, E55D, L70M, A72T
VL: B14 VL with D75A
notes: as for B13
B21: 29H8D3-z23 (antibody, V domains shown)
VH: B14 VH with R40A, E55D, L70M, A72T
VL: B14 VL with D75A, Q105A
notes: as for B13
B22: 29H8D3-z22 (antibody, V domains shown)
VH: B14 VH with M37V, R40A, E55D, L70M, A72T
VL: B14 VL with D75A, Q105A
notes: as for B13
B23: 29H8D3-z21 (antibody, V domains shown)
VH: B14 VH with M37V, R40A, I48M, E55D, A68V, L70M, A72T
VL: B14 VL with D75A, Q105A
notes: as for B13
B24: 29H8D3-z20 (antibody, V domains shown)
VH: B14 VH with E55D
VL: B14 VL with D75A
notes: as for B13
B25: 29H8D3-z17 (antibody, V domains shown)
VH: B14 VH with M37V, R40A, I48M, E55D, A68V, L70M, A72T
VL: B14 VL with D75A
notes: as for B13

Each binder was assayed against T1, human CDH17, full length, expressed on … (assay: flow cytometry, HEK293-hCDH17 cells).

| binding result | Binder |
| --- | --- |
| binds | B1 |
| binds | B2 |
| binds | B3 |
| binds | B4 |
| binds | B5 |
| binds | B6 |
| binds | B7 |
| binds | B8 |
| binds | B9 |
| binds | B10 |
| binds | B11 |
| binds | B12 |
| binds | B13 |

Each binder was assayed against T2, hCDH17-his (full length extracellular …) (assay: SPR (Biacore 8K), two doses, antibody captured on Protein A chip, hCDH17-his at 25 nM and 100 nM).

| binding result | Binder |
| --- | --- |
| binds | B14 |
| binds | B15 |
| binds | B16 |
| binds | B17 |
| binds | B18 |

Each binder was assayed against T2, hCDH17-his (full length extracellular …) (assay: SPR (Biacore 8K), antibody captured on Protein A chip, hCDH17-his injected).

| binding result | Binder |
| --- | --- |
| binds | B1 |
| binds | B2 |
| binds | B5 |
| binds | B6 |
| binds | B8 |
| binds | B10 |
| binds | B11 |
| binds | B13 |
| binds | B19 |
| binds | B20 |
| binds | B21 |
| binds | B22 |
| binds | B23 |
| binds | B24 |
| binds | B25 |
